Values quoted from earlier work in article PMC3674867.

Biological target: caspase-3 (Homo sapiens) (UniProt P42574)
Assay: solid phase binding assay

Sequence of UniProt P42574 (P42574 176-277): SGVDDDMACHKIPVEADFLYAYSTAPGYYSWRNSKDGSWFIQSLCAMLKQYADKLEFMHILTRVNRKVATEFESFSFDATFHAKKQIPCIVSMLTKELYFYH

Kd: 3 nM
Substance: PAI-1 (from UniProt P05121)
